Four molecules from patent US20040248785A1 (UNIVERSITY OF MARYLAND BALTIMORE, published 2004) can be followed below.

The target of test [1] is T1, low density lipoprotein receptor-related protein / alpha2-macroglobulin receptor (LRP), isolated from human … (human, UniProt Q07954 20-4544).
T1 construct: mature; Native receptor coated on microtiter wells; also called purified LRP; immobilized LRP
Nature of the test: competition assay: peptide 484-509 added with 125I-fVIII (1 nM) to LRP-coated wells; competitor of fVIII for LRP. How it is done: FIGS. 17A-17B. Effect of monoclonal antibodies and synthetic peptides on ¹²⁵fVIII binding to purified LRP. […] Binding of ¹²⁵I-fVIII in the presence antibodies or peptides is expressed as the percentage of its binding, when no competitor was added. The mean and standard deviation of the triplicate measurements are presented.
(§1) Homologous and heterologous ligand displacement assays were performed as previously described (Williams, S. E., et al., J. Biol. Chem. 267:9035-9040 (1992)). Microtiter wells were coated with purified LRP or BSA (3 μg/ml) in 50 mM Tris, 0.15 M NaCl, pH 8.0, for 16 h and then blocked with 3% BSA in TBS. Coated wells were incubated with ¹²⁵I-A2 or ¹²⁵I-fVIII in 20 mM Tris-buffered saline pH 7.4, containing 5 mM CaCl₂, 0.05% Tween-20 in the presence or absence of unlabeled competitors for 1 h at 37° C. The radioactivity bound to the wells was counted using a γ-counter (Pharmacia). Affinity constants were derived from homologous and heterologous displacement data using the computer program LIGAND (Munson, P T and Rodbard, D. Anal. Biochem. 107:220-239 (1980)).

Test [2] addresses T1, low density lipoprotein …. The test can be described thus: heterologous displacement of 125I-fVIII (1 nM) from LRP-coated wells; HCh as competitor. How it is done: as §1
(§2) In order to localize fVIII region(s) involved in interaction with LRP, binding between ¹²⁵I-fVIII and immobilized LRP was competed by unlabeled fVIII fragments.
(In general: Loss of bound radioactivity is the signal in a displacement assay; it reports binding, not function.)

Test [3] addresses LRP on mouse embryonic fibroblast (MEF) cells (mouse, UniProt Q91ZX7 20-4545). The test can be described thus: cell-based or functional assay.
The target in test [4] is T1, low density lipoprotein …. Nature of the test: homologous displacement of 125I-A2 (5 nM) by unlabeled A2 (0-1750 nM) on immobilized LRP, program Ligand.
Test [5] has as its target T1, low density lipoprotein …. The test can be described thus: heterologous displacement of 125I-fVIII (1 nM) from LRP-coated wells; isolated A2 domain as competitor. The method, then: as §1, §2
Test [6] deals with T1, low density lipoprotein …. Nature of the test: RAP as competitor of 125I-fVIII (1 nM) binding to LRP-coated wells, LIGAND fit.
In test [7] the target is T1, low density lipoprotein …. The test can be described thus: solid-phase heterologous ligand displacement: RAP competes with 125I-fVIII (1 nM) for LRP-coated wells, 1 h at 37 C. How it is done: FIGS. 15A-15B. Binding of ¹²⁵I-fVIII to purified LRP by ligand competition assay. ¹²⁵I-fVIII (1 nM) was incubated for 1 h at 37° C. in wells coated with LRP (•) or BSA (∘) in the presence of increasing concentrations of unlabeled competitors, fVIII (•, ∘) or vWf (Δ) (FIG. 15A) and RAP (•, ∘) (FIG. 15B). In the experiment (Δ), ¹²⁵I-fVIII was preincubated with vWf for 30 min at 37° C., prior to its addition to the wells. Following incubation, the wells were washed and ¹²⁵I-fVIII binding was determined. Binding of ¹²⁵I-fVIII in the presence of unlabeled fVIII, vWf, or RAP is expressed as the percentage of ¹²⁵fVIII binding, when no competitor was added. Each point represents the mean value of triplicates and the error bars display the standard deviation. The curves show a best fit of the data to a model describing heterologous ligand displacement from a single class of binding sites using the program LIGAND.
Homologous and heterologous ligand displacement assays were performed as previously described (Williams, S. E., et al., J. Biol. Chem. 267:9035-9040 (1992)). Microtiter wells were coated with purified LRP or BSA (3 μg/ml) in 50 mM Tris, 0.15 M NaCl, pH 8.0, for 16 h and then blocked with 3% BSA in TBS. […] The radioactivity bound to the wells was counted using a γ-counter (Pharmacia). […]

T1 sequence (Q07954 20-4544, form in doubt): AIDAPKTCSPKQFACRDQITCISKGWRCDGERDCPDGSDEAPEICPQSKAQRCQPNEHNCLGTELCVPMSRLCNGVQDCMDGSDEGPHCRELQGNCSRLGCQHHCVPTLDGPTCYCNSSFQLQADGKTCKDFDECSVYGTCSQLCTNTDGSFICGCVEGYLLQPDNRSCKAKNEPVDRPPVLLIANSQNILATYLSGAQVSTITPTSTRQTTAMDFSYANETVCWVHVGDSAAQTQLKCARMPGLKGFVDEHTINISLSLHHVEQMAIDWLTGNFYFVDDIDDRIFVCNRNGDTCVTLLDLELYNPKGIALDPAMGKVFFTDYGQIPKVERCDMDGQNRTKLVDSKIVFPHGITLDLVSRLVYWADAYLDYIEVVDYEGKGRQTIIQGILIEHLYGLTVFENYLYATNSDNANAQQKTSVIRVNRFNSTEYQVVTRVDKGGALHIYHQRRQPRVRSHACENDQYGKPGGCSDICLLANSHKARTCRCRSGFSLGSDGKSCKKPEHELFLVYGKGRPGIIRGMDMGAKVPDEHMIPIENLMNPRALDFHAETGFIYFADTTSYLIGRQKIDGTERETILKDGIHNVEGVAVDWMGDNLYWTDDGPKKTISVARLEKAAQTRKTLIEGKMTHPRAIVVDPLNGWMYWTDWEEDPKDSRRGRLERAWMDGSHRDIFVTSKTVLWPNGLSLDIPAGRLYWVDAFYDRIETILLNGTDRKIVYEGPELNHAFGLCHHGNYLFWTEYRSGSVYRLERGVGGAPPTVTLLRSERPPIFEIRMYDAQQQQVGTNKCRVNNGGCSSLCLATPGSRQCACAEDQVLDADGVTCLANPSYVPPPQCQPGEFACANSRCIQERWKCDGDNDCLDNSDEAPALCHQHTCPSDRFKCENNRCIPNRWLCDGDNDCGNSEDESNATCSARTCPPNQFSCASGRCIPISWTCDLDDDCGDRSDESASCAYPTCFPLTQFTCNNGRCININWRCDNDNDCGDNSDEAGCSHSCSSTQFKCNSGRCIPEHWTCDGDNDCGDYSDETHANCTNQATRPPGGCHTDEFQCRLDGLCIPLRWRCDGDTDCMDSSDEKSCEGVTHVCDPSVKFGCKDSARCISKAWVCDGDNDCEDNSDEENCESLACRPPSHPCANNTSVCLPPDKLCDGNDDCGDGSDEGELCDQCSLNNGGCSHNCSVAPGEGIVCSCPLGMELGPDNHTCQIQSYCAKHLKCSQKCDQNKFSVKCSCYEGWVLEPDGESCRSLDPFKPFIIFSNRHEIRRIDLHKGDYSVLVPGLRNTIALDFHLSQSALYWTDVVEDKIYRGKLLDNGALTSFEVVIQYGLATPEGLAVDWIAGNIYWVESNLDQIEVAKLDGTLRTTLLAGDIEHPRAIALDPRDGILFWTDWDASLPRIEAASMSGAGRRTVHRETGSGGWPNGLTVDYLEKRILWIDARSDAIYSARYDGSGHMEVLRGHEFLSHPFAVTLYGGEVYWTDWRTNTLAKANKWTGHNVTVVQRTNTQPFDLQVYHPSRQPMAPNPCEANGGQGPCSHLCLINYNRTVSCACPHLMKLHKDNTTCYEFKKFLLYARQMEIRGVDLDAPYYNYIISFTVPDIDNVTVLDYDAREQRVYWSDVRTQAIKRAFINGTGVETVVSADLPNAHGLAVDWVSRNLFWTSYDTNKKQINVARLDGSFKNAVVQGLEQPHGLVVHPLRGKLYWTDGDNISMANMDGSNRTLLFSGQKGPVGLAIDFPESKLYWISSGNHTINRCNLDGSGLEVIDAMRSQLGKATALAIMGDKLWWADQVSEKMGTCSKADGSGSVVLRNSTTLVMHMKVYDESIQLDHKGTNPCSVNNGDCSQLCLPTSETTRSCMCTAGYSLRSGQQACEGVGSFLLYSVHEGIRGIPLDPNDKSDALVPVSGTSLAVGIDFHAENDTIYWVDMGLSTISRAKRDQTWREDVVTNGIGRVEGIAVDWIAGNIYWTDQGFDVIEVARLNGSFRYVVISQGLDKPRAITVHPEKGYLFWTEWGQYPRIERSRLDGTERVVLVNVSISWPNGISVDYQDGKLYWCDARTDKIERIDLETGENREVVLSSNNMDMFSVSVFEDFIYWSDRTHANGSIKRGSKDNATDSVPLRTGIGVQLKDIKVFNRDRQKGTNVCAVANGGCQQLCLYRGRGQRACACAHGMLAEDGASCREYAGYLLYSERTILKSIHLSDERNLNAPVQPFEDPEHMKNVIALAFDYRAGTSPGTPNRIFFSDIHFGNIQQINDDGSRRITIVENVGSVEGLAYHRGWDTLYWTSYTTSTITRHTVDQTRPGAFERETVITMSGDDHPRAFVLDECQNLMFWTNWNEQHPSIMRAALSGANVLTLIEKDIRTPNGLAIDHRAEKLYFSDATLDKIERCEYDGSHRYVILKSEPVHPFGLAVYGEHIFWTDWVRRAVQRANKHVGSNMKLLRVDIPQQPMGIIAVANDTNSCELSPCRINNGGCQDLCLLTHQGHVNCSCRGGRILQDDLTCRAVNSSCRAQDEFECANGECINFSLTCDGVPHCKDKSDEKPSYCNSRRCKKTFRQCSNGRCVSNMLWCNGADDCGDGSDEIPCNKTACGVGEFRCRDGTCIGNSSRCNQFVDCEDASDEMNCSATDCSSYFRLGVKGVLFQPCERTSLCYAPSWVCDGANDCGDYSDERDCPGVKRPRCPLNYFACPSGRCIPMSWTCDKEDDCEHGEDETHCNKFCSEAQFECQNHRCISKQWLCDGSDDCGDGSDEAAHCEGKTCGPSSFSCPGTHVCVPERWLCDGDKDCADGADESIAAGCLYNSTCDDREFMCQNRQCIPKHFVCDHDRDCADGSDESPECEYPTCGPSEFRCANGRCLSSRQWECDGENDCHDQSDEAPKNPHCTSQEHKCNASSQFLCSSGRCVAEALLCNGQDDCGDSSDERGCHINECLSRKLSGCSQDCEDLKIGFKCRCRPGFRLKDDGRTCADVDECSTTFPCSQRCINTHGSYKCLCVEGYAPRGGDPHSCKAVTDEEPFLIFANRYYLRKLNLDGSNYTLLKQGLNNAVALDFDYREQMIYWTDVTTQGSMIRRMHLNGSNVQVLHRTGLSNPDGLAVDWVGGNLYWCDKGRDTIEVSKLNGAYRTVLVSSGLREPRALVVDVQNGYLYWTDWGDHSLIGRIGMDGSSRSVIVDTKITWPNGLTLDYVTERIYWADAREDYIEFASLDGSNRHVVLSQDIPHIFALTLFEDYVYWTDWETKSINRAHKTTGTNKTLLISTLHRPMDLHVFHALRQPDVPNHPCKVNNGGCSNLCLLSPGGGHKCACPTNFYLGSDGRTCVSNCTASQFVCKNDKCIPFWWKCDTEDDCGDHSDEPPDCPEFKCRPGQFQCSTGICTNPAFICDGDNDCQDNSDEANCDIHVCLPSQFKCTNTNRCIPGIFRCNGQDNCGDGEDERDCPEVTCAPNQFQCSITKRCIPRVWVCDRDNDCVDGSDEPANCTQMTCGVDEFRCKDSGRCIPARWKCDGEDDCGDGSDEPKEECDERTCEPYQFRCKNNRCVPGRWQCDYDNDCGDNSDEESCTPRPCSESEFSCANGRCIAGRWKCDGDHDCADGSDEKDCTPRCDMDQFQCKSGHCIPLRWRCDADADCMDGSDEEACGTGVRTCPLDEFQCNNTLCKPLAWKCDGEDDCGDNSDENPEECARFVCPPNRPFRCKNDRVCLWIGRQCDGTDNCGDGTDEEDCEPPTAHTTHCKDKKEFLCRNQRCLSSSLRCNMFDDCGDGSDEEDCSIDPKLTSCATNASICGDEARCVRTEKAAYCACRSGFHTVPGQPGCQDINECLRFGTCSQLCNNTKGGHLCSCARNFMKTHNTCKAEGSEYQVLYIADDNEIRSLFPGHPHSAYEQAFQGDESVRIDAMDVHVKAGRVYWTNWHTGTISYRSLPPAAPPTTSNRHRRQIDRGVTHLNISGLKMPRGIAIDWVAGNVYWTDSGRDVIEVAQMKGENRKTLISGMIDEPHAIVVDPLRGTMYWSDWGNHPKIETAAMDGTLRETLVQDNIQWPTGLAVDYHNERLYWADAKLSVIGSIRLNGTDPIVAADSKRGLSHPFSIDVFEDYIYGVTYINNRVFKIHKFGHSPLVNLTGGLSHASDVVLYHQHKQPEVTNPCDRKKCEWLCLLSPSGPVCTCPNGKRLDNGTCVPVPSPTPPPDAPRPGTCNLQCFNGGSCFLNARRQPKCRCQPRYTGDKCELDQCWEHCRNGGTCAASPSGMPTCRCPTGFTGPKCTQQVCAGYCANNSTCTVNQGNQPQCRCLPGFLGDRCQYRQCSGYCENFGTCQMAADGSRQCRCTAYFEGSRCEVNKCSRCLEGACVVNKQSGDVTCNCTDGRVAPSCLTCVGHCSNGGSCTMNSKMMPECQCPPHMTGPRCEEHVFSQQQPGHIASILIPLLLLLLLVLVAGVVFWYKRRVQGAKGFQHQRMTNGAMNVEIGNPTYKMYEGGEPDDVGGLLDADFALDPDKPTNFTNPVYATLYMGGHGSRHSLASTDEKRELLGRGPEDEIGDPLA

For the molecule RPLYSRRLPKGVKHLKDFPILPGEIF [synthetic peptide of fVIII A2 domain residues 484-509], the “IC50 (read off the curve)” value in test [1] was roughly 1000 nM.

B1: heavy chain (HCh) of factor VIII (other)
chain: ATRRYYLGAVELSWDYMQSDLGELPVDARFPPRVPKSFPFNTSVVYKKTLFVEFTDHLFNIAKPRPPWMGLLGPTIQAEVYDTVVITLKNMASHPVSLHAVGVSYWKASEGAEYDDQTSQREKEDDKVFPGGSHTYVWQVLKENGPMASDPLCLTYSYLSHVDLVKDLNSGLIGALLVCREGSLAKEKTQTLHKFILLFAVFDEGKSWHSETKNSLMQDRDAASARAWPKMHTVNGYVNRSLPGLIGCHRKSVYWHVIGMGTTPEVHSIFLEGHTFLVRNHRQASLEISPITFLTAQTLLMDLGQFLLFCHISSHQHDGMEAYVKVDSCPEEPQLRMKNNEEAEDYDDDLTDSEMDVVRFDDDNSPSFIQIRSVAKKHPKTWVHYIAAEEEDWDYAPLVLAPDDRSYKSQYLNNGPQRIGRKYKKVRFMAYTDETFKTREAIQHESGILGPLLYGEVGDTLLIIFKNQASRPYNIYPHGITDVRPLYSRRLPKGVKHLKDFPILPGEIFKYKWTVTVEDGPTKSDPRCLTRYYSSFVNMERDLASGLIGPLLICYKESVDQRGNQIMSDKRNVILFSVFDENRSWYLTENIQRFLPNPAGVQLEDPEFQASNIMHSINGYVFDSLQLSVCLHEVAYWYILSIGAQTDFLSVFFSGYTFKHKMVYEDTLTLFPFSGETVFMSMENPGLWILGCHNSDFRNRGMTALLKVSSCDKNTGDYYEDSYEDISAYLLSKNNAIEPRSFSQNSRHRSTRQKQFNATTIPENDIEKTDPWFAHRTPMPKIQNVSSSDLLMLLRQSPTPHGLSLSDLQEAKYETFSDDPSPGAIDSNNSLSEMTHFRPQLHHSGDMVFTPESGLQLRLNEKLGTTAATELKKLDFKVSSTSNNLISTIPSDNLAAGTDNTSSLGPPSMPVHYDSQLDTTLFGKKSSPLTESGGPLSLSEENNDSKLLESGLMNSQESSWGKNVSSTESGRLFKGKRAHGPALLTKDNALFKVSISLLKTNKTSNNSATNRKTHIDGPSLLIENSPSVWQNILESDTEFKKVTPLIHDRMLMDKNATALRLNHMSNKTTSSKNMEMVQQKKEGPIPPDAQNPDMSFFKMLFLPESARWIQRTHGKNSLNSGQGPSPKQLVSLGPEKSVEGQNFLSEKNKVVVGKGEFTKDVGLKEMVFPSSRNLFLTNLDNLHENNTHNQEKKIQEEIEKKETLIQENVVLPQIHTVTGTKNFMKNLFLLSTRQNVEGSYDGAYAPVLQDFRSLNDSTNRTKKHTAHFSKKGEEENLEGLGNQTKQIVEKYACTTRISPNTSQQNFVTQRSKRALKQFRLPLEETELEKRIIVDDTSTQWSKNMKHLTPSTLTQIDYNEKEKGAITQSPLSDCLTRSHSIPQANRSPLPIAKVSSFPSIRPIYLTRVLFQDNSSHLPAASYRKKDSGVQESSHFLQGAKKNNLSLAILTLEMTGDQREVGSLGTSATNSVTYKKVENTVLPKPDLPKTSGKVELLPKVHIYQKDLFPTETSNGSPGHLDLVEGSLLQGTEGAIKWNEANRPGKVPFLRVATESSAKTPSKLLDPLAWDNHYGTQIPKEEWKSQEKSPEKTAFKKKDTILSLNACESNHAIAAINEGQNKPEIEVTWAKQGRTERLCSQNPPVLKRHQR
notes: Prepared from plasma-derived fVIII
Regarding B1, the Ki (as a rule, the equilibrium dissociation constant of an inhibitor or competing ligand from its target) in test [2] was found to be 120 nM.

B2: A2 subunit (A2 domain) of factor VIII, isolated from thrombin-activated fVIII (other)
chain: SVAKKHPKTWVHYIAAEEEDWDYAPLVLAPDDRSYKSQYLNNGPQRIGRKYKKVRFMAYTDETFKTREAIQHESGILGPLLYGEVGDTLLIIFKNQASRPYNIYPHGITDVRPLYSRRLPKGVKHLKDFPILPGEIFKYKWTVTVEDGPTKSDPRCLTRYYSSFVNMERDLASGLIGPLLICYKESVDQRGNQIMSDKRNVILFSVFDENRSWYLTENIQRFLPNPAGVQLEDPEFQASNIMHSINGYVFDSLQLSVCLHEVAYWYILSIGAQTDFLSVFFSGYTFKHKMVYEDTLTLFPFSGETVFMSMENPGLWILGCHNSDFRNRGMTALLKVSSCDKNTGDYYEDSYEDISAYLLSKNNAIEPR
modifications: 125I-labelled where used as tracer
notes: Protein was made from plasma-derived fVIII
For the molecule B2, in test [3], the “inhibition of degradation of 125I-fVIII/vWf complex by MEF cells by a 1000-fold excess of A2, after 4 hours” value is greater than 60% and the “inhibition of internalization of 125I-fVIII/vWf complex by MEF cells by a 1000-fold excess of A2, after 4 hours” value was greater than 70%. Moreover, binding in test [4] was characterised by a dissociation constant (Kd) of 130 nM. Moreover, in test [5], the affinity, expressed as Ki, was 132 nM.

B3: 39 kDa receptor-associated protein (RAP), human, expressed in bacteria (ligand)
chain: YSREKNQPKPSPKRESGEEFRMEKLNQLWEKAQRLHLPPVRLAELHADLKIQERDELAWKKLKLDGLDEDGEKEARLIRNLNVILAKYGLDGKKDARQVTSNSLSGTQEDGLDDPRLEKLWHKAKTSGKFSGEELDKLWREFLHHKEKVHEYNVLLETLSRTEEIHENVISPSDLSDIKGSVLHSRHTELKEKLRSINQGLDRLRRVSHQGYSTEAEFEEPRVIDLWDLAQSANLTDKELEAFREELKHFEAKIEKHNHYQKQLEIAHEKLRHAESVGDGERVSRSREKHALLEGRTKELGYTVKKHLQDLSGRISRARHNEL
notes: also called alpha2 macroglobulin receptor-associated protein
Take B3: the Ki in test [6] turned out to be 2.5 nM. Moreover, the “IC50 (read off the curve)” value in test [7] was roughly 2 nM.
